The text below walks through data of patent US20210380649A1 (BIO TECHNE, published 2021).

In test [1] the target is T1, mouse Wnt1 (mouse, UniProt P04426 28-370).
T1 construct: In the co-IP and chromatography it is the protein found in CHO conditioned media; also called mWnt1; mWnt-1
T1 sequence (looked up): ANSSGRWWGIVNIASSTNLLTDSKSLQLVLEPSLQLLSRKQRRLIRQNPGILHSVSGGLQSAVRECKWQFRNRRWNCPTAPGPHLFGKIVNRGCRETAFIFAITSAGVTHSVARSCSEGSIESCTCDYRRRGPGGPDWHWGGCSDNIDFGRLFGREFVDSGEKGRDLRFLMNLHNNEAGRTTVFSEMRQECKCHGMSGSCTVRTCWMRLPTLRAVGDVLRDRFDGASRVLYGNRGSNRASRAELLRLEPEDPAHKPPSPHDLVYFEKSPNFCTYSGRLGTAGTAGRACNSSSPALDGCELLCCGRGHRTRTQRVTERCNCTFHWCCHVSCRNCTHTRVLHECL
The experiment in a line: SDS-PAGE with Coomassie Blue of the gel-filtration purified complex, densitometry, FIG. 4F. An excerpt: FIG. 4A. Conditioned media from CHO cells co-expressing msFRP1 and mWnt-1 were loaded onto SP Sepharose column, and bound proteins were eluted with a linear gradient of high salt buffer. The distinct late elution peak was the position that sFRP was usually eluted. FIG. 4B. Fractions collected from SP elution were loaded onto 15 percent (%) SDS-PAGE and stained with silver. The 37 kDa bands represent sFRP1. FIG. 4C. The same fractions of FIG. 4B were subjected to Western blot probed with antibody against mWnt-1. mWnt-1 was detected as a ˜52 kDa band that is present in the same fractions where sFRP1 was detected. FIG. 4D. Pool from a SP Sepharose column was loaded and eluted from a gel filtration (Superdex 200) column. The earlier-eluted peak contained the sFRP1/Wnt-1 complex, while the later-eluted peak contained the free sFRP. FIG. 4E. Fractions collected from gel filtration elution were loaded onto a 15% SDS-PAGE gel and stained with Coomassie blue. The lower band (37 kDa) represents sFRP1 and the upper band (52 kDa) represents Wnt-1. FIG. 4F. sFRP1/Wnt-1 complex purified from a gel filtration column was loaded onto a 15% SDS-PAGE gel and stained with Coomassie blue. Two bands, at 37 kDa and 52 kDa, were observed, with a roughly 1:1 molar ratio.

Test [2] deals with T1, mouse Wnt1. The experiment in a line: cell-based or functional assay.
The target of test [3] is T2, recombinant mouse (rm) Wnt3a biotinylated protein (mouse, UniProt P27467 19-352, biotinylated (sites not given)).
T2 construct: also called biotinylated mouse Wnt3a protein
In words: ELISA: in-solution binding with biotinylated mouse Wnt3a (100 ng/mL), capture on streptavidin plate, detection with goat anti-sFRP1 antibody, FIG. 8. As for the experimental part:
(§1) Purified recombinant mouse sFRP proteins were tested in ELISA binding assays with a biotinylated mouse Wnt3a protein. […] His tagged-mouse sFRP2 and His tagged-mouse sFRP3 were detected with a mouse anti-His antibody. HA tagged-mouse sFRP5 was detected with a mouse anti-HA antibody.
(§2) A 96-well tissue culture plate was blocked with 1% BSA in PBS and used as an in-solution binding plate. 120 μL of total volume containing 100 ng/mL recombinant mouse (rm) Wnt3a biotinylated protein and sFRPs (1:3 serial dilution) were incubated overnight at 4° C. in the binding plate. Then 100 μL of binding solution was transferred to streptavidin coated 96-well ELISA plate, incubating overnight at 4° C. followed by the HRP detection. The mouse sFRP1 was detected with a goat anti-mouse sFRP1 antibody, mouse sFRP2 and mouse sFRP3 were His-tagged and were detected with a mouse anti-His antibody, mouse sFRP4 was detected with a sheep anti-mouse sFRP4 antibody, and the HA-tagged mouse sFRP5 was detected with a mouse […]. […] secondary antibodies were used to detect the primary antibodies followed by colorimetric readouts.

In test [4] the target is T2, recombinant mouse (rm) Wnt3a …. In words: ELISA: in-solution binding with biotinylated mouse Wnt3a (100 ng/mL), capture on streptavidin plate, detection with mouse anti-His antibody, FIG. 8. The method, then:
as §1, §2

Test [5] has the same target. In words: ELISA: in-solution binding with biotinylated mouse Wnt3a (100 ng/mL), capture on streptavidin plate, detection with mouse anti-HA antibody, FIG. 8. As for the experimental part: as §1, §2
Background: In an ELISA, binding on a coated surface is turned into a signal by an enzyme label.

T2 sequence (P27467 19-352 limits assumed): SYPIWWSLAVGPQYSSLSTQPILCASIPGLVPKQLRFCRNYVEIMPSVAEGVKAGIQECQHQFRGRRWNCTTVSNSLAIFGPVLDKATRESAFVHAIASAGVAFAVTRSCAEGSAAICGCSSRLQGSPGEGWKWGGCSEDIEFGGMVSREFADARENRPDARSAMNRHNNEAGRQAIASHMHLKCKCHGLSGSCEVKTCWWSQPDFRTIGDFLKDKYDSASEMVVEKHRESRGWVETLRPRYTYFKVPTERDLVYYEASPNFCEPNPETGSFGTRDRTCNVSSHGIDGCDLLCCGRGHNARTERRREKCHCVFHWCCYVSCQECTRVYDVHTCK

B1: mouse sFRP1 (other, UniProt Q8C4U3 32-314, looked up)
chain: SEYDYVSFQSDIGSYQSGRFYTKPPQCVDIPVDLRLCHNVGYKKMVLPNLLEHETMAEVKQQASSWVPLLNKNCHMGTQVFLCSLFAPVCLDRPIYPCRWLCEAVRDSCEPVMQFFGFYWPEMLKCDKFPEGDVCIAMTPPNTTEASKPQGTTVCPPCDNELKSEAIIEHLCASEFALRMKIKEVKKENGDKKIVPKKKKPLKLGPIKKKELKRLVLFLKNGADCPCHQLDNLSHNFLIMGRKVKSQYLLTAIHKWDKKNKEFKNFMKRMKNHECPTFQSVFK
notes: Secreted protein; also called msFRP1; msFRP-1
On to B1, for which, in the test with mouse Wnt1 [1], the “molar ratio of the two bands in the purified complex” value is ~1 molar ratio (sFRP1:Wnt-1). In the test with mouse Wnt1 [2], the “fold induction above background, HEK293 TCF9-SEAP hFz4/hLRP5 Wnt Reporter assay, conditioned media of CHO cells co-expressing mWnt1 and msFRP1” value was 22 fold. For the same molecule, the binding result in test [3] is given as “binds”.

B2: mouse sFRP1-His (other, UniProt Q8C4U3 32-314, looked up, not shown: small tags and cut ends)
chain: B1 chain
Take B2: in the test with mouse Wnt1 [2], the “fold induction above background, HEK293 TCF9-SEAP hFz4/hLRP5 Wnt Reporter assay, conditioned media of CHO cells co-expressing mWnt1 and msFRP1-His” value amounted to 17 fold.

B3: His tagged-mouse sFRP2 (other, UniProt P97299 25-295, looked up)
chain: LFLFGQPDFSYKRSNCKPIPANLQLCHGIEYQNMRLPNLLGHETMKEVLEQAGAWIPLVMKQCHPDTKKFLCSLFAPVCLDDLDETIQPCHSLCVQVKDRCAPVMSAFGFPWPDMLECDRFPQDNDLCIPLASSDHLLPATEEAPKVCEACKTKNEDDNDIMETLCKNDFALKIKVKEITYINRDTKIILETKSKTIYKLNGVSERDLKKSVLWLKDSLQCTCEEMNDINAPYLVMGQKQGGELVITSVKRWQKGQREFKRISRSIRKLQC
notes: also called msFRP2; not shown: His tag
On to B3, for which the binding result in test [4] is “binds”.

B4: HA tagged-mouse sFRP5 (other, UniProt Q9WU66 22-314, looked up)
chain: APTRGQEYDYYGWQAEPLHGRSYSKPPQCLDIPADLPLCHTVGYKRMRLPNLLEHESLAEVKQQASSWLPLLAKRCHSDTQVFLCSLFAPVCLDRPIYPCRSLCEAARAGCAPLMEAYGFPWPEMLHCHKFPLDNDLCIAVQFGHLPATAPPVTKICAQCEMEHSADGLMEQMCSSDFVVKMRIKEIKIDNGDRKLIGAQKKKKLLKAGPLKRKDTKKLVLHMKNGASCPCPQLDNLTGSFLVMGRKVEGQLLLTAVYRWDKKNKEMKFAVKFMFSYPCSLYYPFFYGAAEPH
notes: not shown: HA tag
On to B4, for which the binding result in test [5] is “binds”.
